Results reported in patent US20140315799A1 (J DAVID GLADSTONE INSTITUTES, published 2014).

Target: T1, endogenous p75^NTR in 3T3L1 adipocytes (mouse, UniProt Q9Z0W1 32-427)
T1 construct: whole, on cells
T1 sequence (looked up): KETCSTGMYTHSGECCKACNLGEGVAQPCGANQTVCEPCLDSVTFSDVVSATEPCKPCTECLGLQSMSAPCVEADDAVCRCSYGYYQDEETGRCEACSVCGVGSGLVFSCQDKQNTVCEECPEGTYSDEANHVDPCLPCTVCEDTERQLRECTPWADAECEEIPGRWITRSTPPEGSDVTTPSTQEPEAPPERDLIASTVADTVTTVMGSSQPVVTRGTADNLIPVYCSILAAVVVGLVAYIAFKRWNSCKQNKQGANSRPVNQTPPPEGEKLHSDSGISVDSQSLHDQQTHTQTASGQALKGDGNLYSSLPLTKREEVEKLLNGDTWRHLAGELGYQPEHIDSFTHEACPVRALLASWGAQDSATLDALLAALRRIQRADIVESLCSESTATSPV
Test: endogenous co-IP from 3T3L1 adipocytes (anti-p75NTR IP, anti-Rab31 blot)
Protocol: Briefly, cell lysates were prepared in 1% Nonidet P-40 (NP-40; non-ionic detergent), 200 mM NaCl, 1 mM EDTA, and 20 mM Tris-HCl, pH 8.0. Immunoprecipitations (IPs) were performed with an anti-p75^NTR antibody and immunoblot with anti-Rab31 and anti-p75^NTR.
(C) Immunoprecipitation of p75^NTR with Rab31 and Rab5 in 3T3L1 adipocytes stimulated with insulin. Lysates were immunoprecipitated with anti-p75^NTR antibody, and western blots were developed with anti-Rab31 and anti-Rab5 antibodies.

- binding result: binds
B1: endogenous Rab31 in 3T3L1 adipocytes (enzyme, UniProt Q921E2 1-195, looked up)
chain: MMAIRELKVCLLGDTGVGKSSIVCRFVQDHFDHNISPTIGASFMTKTVPCGNELHKFLIWDTAGQERFHSLAPMYYRGSAAAVIVYDITKQDSFHTLKKWVKELKEHGPENIVMAIAGNKCDLSDIREVPLKDAKEYAESIGAIVVETSAKNAINIEELFQGISRQIPPLGPQENGNSGGIKLGNQSLQASRRCC
